Reference: PMC4084651 (DNA repair, 2013)
Like-named read-outs stand apart in the source and are kept apart here. Values belong to the molecule of their own block, whether it stands above or below them.

What was measured:
SsoRadA [1] = target: T1, SsoRadA (Saccharolobus solfataricus, UniProt Q55075); assay: filter binding, saturation binding curve
T1 sequence (Q55075 1-324): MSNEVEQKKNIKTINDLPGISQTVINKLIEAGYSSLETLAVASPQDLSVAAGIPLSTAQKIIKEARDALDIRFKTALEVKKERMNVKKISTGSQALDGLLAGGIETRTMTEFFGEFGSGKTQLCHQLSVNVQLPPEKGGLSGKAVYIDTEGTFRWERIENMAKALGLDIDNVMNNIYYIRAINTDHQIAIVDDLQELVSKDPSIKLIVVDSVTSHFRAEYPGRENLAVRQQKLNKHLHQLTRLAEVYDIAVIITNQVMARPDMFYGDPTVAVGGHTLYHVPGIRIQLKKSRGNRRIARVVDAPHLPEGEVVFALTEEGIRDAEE

SsoRadA [2] = target: SsoRadA (Saccharolobus solfataricus, UniProt Q55075, K120R); assay: filter binding, saturation binding curve
SsoRadA K120A [3] = target: T2, SsoRadA K120A (Sulfolobus solfataricus, UniProt Q55075 1-324, K120A); assay: EMSA
T2 sequence: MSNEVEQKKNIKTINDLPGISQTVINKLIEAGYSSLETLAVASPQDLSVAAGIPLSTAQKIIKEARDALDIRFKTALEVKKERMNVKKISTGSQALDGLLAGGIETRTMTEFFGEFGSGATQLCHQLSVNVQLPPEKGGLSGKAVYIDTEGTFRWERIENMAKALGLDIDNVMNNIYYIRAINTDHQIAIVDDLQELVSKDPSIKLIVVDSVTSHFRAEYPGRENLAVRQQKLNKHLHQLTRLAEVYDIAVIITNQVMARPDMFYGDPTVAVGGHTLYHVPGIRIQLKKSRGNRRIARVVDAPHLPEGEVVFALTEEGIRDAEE

SsoRadA [4] = target: T3, SsoRadA (Sulfolobus solfataricus, UniProt Q55075 1-324); assay: EMSA
T3 sequence: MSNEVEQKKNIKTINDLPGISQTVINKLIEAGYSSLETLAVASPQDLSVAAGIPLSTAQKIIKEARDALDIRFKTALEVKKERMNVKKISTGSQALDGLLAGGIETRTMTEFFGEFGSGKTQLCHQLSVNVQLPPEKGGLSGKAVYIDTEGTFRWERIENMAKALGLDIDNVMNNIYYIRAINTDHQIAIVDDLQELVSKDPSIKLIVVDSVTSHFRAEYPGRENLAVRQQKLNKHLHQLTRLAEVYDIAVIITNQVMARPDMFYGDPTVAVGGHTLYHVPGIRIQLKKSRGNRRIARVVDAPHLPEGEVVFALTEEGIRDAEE

SsoRadA [5] = target: T3, SsoRadA; assay: EMSA; remark: listed apart in the source
SsoRadA K120A [6] = target: T2, SsoRadA K120A; assay: EMSA; remark: listed apart in the source
SsoRadA K120R = target: T4, SsoRadA K120R (Sulfolobus solfataricus, UniProt Q55075 1-324, K120R); assay: EMSA
T4 sequence: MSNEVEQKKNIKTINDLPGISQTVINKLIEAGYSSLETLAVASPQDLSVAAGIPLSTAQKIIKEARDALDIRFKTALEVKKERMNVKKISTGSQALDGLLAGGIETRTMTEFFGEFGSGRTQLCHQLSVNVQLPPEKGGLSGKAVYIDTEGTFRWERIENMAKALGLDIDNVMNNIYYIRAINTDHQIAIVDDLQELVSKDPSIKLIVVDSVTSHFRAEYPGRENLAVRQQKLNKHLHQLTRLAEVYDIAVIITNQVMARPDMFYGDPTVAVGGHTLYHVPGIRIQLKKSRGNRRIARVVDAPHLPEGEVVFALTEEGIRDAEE

Kd (SsoRadA [1]): 2.4 ± 0.6 µM
Kd (SsoRadA [2]): 59.4 ± 9.4 µM
Molecule: Nc1ncnc2c1ncn2[C@@H]1O[C@H](COP(=O)(O)OP(=O)(O)OP(=O)(O)O)[C@@H](O)[C@H]1O [ATP]

B1: 63-mer ssDNA (ssDNA)
DNA: ACAGCACCAATGAAATCTATTAAGCTCCTCATCGTCCGCAAAAATATCGTCACCTCAAAAGGA
binding result (SsoRadA K120A [3]): binds
binding result (SsoRadA [4]): binds

B2: 63-mer dsDNA (dsDNA)
DNA 1: ACAGCACCAATGAAATCTATTAAGCTCCTCATCGTCCGCAAAAATATCGTCACCTCAAAAGGA
DNA 2: TCCTTTTGAGGTGACGATATTTTTGCGGACGATGAGGAGCTTAATAGATTTCATTGGTGCTGT
binding result (SsoRadA [5]): no binding
binding result (SsoRadA K120A [6]): no binding
binding result (SsoRadA K120R): no binding
